# Columns and labels:
# [1] = molecular target: SPHK1 (sphingosine kinase 1) (UniProt Q9NYA1); experiment: GST-SPHK1 pull-down of Flag-purified PKR; details: reference: wild-type PKR-Flag; sites T451
# [2] = molecular target: SPHK1 (sphingosine kinase 1) (UniProt Q9NYA1); experiment: Co-IP of Flag-PKR with endogenous SPHK1; details: reference: wild-type PKR-Flag; sites T451
# [3] = molecular target: T1, GST-PKR (human, UniProt P19525 1-551); experiment: pull-down; Flag-tagged SPHK1 (wild type, 225A, 225D) immunoprecipitated with anti-Flag from HEK293T lysates, purified and co-incubated with GST-PKR; details: both partners purified
# T1 construct: double-stranded RNA-dependent protein kinase R (PKR), human, full-length cDNA; also called PKR (in vitro); source: prokaryotic expression (pGEX-4T1/pET28a vectors)
# T1 sequence (P19525 whole entry): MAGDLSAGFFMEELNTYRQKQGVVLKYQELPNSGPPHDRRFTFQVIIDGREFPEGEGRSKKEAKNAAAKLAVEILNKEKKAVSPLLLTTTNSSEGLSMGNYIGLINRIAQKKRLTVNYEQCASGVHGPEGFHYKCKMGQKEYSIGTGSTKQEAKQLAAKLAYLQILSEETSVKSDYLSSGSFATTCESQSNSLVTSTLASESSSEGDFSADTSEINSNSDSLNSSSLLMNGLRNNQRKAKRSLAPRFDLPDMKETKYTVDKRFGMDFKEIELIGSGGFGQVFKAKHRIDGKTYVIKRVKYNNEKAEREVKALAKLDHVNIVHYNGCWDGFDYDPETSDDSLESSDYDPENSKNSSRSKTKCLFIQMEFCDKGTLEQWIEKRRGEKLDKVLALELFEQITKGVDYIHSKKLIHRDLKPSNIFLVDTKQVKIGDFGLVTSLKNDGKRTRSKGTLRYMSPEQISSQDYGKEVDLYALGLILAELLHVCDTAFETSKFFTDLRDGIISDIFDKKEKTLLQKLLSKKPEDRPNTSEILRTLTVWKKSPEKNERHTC
# [4] = molecular target: T2, PKR-Flag (wild type) (human, UniProt P19525 1-551); experiment: pull-down; Flag-tagged PKR (wild type, 451A, 451D) purified from HEK293T and co-incubated with GST-SPHK1; details: both partners purified
# T2 construct: double-stranded RNA-dependent protein kinase R (PKR), human, full-length cDNA; also called wild-type PKR; Flag-PKR; source: HEK293T, transfected, in lysate; also purified from the lysate for the GST pulldown; not shown: Flag, C-terminal, kept
# T2 sequence (P19525 whole entry): as above
# [5] = molecular target: T3, PKR^451D-Flag (human, UniProt P19525 1-551, T451D); experiment: as above; details: both partners purified
# T3 construct: double-stranded RNA-dependent protein kinase R (PKR), human, full-length cDNA, point mutant at Thr451; also called T451D; source: HEK293T, transfected, in lysate; also purified from the lysate for the GST pulldown; not shown: Flag, C-terminal, kept
# T3 sequence (P19525 whole entry T451D): as the sequence (P19525 whole entry) above, with T451D counted along it
# [6] = molecular target: T4, PKR^451A-Flag (human, UniProt P19525 1-551, T451A); experiment: as above; details: both partners purified
# T4 construct: double-stranded RNA-dependent protein kinase R (PKR), human, full-length cDNA, point mutant at Thr451; also called T451A; source: HEK293T, transfected, in lysate; also purified from the lysate for the GST pulldown; not shown: Flag, C-terminal, kept
# T4 sequence (P19525 whole entry T451A): as the sequence (P19525 whole entry) above, with T451A counted along it
molecule,measurement,setting,value
PKR (dsRNA-dependent protein kinase R) (from UniProt P19525) T451A,binding against the reference,[1],stronger
same,binding against the reference,[2],stronger
"SPHK1^225D-Flag (phosphomimetic mutant of SPHK1) (enzyme, human, UniProt Q9NYA1 1-384, looked up, sphingosine kinase 1 (SPHK1), human, full-length cDNA, point mutant at Ser225; source: HEK293T, transfected, in lysate; also purified from the lysate with anti-Flag for the GST pulldown; not shown: Flag, C-terminal, kept) MDPAGGPRGVLPRPCRVLVLLNPRGGKGKALQLFRSHVQPLLAEAEISFTLMLTERRNHARELVRSEELGRWDALVVMSGDGLMHEVVNGLMERPDWETAIQKPLCSLPAGSGNALAASLNHYAGYEQVTNEDLLTNCTLLLCRRLLSPMNLLSLHTASGLRLFSVLSLAWGFIADVDLESEKYRRLGEMRFTLGTFLRLAALRTYRGRLAYLPVGRVGSKTPADPVVVQQGPVDAHLVPLEEPVPSHWTVVPDEDFVLVLALLHSHLGSEMFAAPMGRCAAGVMHLFYVRAGVSRAMLLRLFLAMEKGRHMEYECPYLVYVPVVAFRLEPKDGKGVFAVDGELMVSEAVQGQVHPNYFWMVSGCVEPPPSWKPQQMPPPEEPL",binding result,[3],binds
"GST-SPHK1 (enzyme, human, UniProt Q9NYA1 1-384, looked up, sphingosine kinase 1 (SPHK1), human, full-length cDNA in pGEX-4T1; pGEX-4T1 normally adds GST at the N-terminus; also called purified SPHK1; source: Rosetta bacterial cells, purified on Glutathione Sepharose beads) MDPAGGPRGVLPRPCRVLVLLNPRGGKGKALQLFRSHVQPLLAEAEISFTLMLTERRNHARELVRSEELGRWDALVVMSGDGLMHEVVNGLMERPDWETAIQKPLCSLPAGSGNALAASLNHYAGYEQVTNEDLLTNCTLLLCRRLLSPMNLLSLHTASGLRLFSVLSLAWGFIADVDLESEKYRRLGEMRFTLGTFLRLAALRTYRGRLAYLPVGRVGSKTPASPVVVQQGPVDAHLVPLEEPVPSHWTVVPDEDFVLVLALLHSHLGSEMFAAPMGRCAAGVMHLFYVRAGVSRAMLLRLFLAMEKGRHMEYECPYLVYVPVVAFRLEPKDGKGVFAVDGELMVSEAVQGQVHPNYFWMVSGCVEPPPSWKPQQMPPPEEPL",binding result,[4],binds
same,binding result,[5],binds
same,binding result,[6],binds
